Experimental data published in the supplement of paper PMC12636428.

System: Saccharomyces cerevisiae
Assay: transcriptional activation domain activity (GFP:mCherry ratio, weighted mean of sorted bins, harmonized to initial dataset scale) (arbitrary fluorescence ratio units); higher = stronger transcriptional activation
Details: beta-estradiol 1 µM; induction time 4 h
Protocol: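 53-aa protein tiles (fungal proteins plus yeast TF control tiles) fused C-terminally to a DBD-estrogen-binding domain-mCherry synthetic TF, integrated in S. cerevisiae (URA3 locus) with a GFP reporter. Cells were induced with 1 uM beta-estradiol for 4 h at 30 C, FACS-sorted into 8 bins by GFP:mCherry ratio and barcodes sequenced. Activity is the read-weighted mean bin fluorescence (GFP:mCherry), averaged over barcodes (median 12); tiles under 50 reads were discarded. New active-learning values were harmonized by linear fit onto the scale of the initial (Hummel et al.) dataset. The assay saturates at low and high signal.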

Row | Sequence | transcriptional activation domain activity
1 | HVNVPTQFLSMVCPMAESIVEMVNGRMNLVGTTNYWRMIILLRPYVFQCGAAI | 44200
2 | LVSALWVLNTLHSALMFHLVYHYLILNAFDLFELSQNVWSLPASMIVHLIMAF | 47500
3 | EDGESTKTKDAGRKRKRSTGEGEREDKGADGTKENKKKRKLASEKEKESDKEN | 27400
4 | YASVLSLIMFFPLPFLSGEILDISRNCYILDVFFHWLMVVCGGLGSWAVFWST | 78700
5 | CVWVYTEIFPEFVWLLIFKLLKSMPEMTRRTGIVVIRSLVSCGIQIGDTFTHK | 50600
6 | MSLASLAAQRSNCMKRRVGCVVVRDKRVVSTGYNGTPRGLRNCGEGGCGRCNE | 21100
7 | HVQIASSDVIKRVSSRVAWCLKSILTILLNVNQLEMSVLRSRVLRLIVFFLHY | 62300
8 | LHYIYVVAISKSLSRLTLSYYTPAQLAMIGYFNLHIIWLKLMIPWRFFRLWSL | 43200
9 | EKGEGDKNRRGRRRGGRGRGGGGDKDKEKDKEGGGGGGRGERKTEGSGGISAQ | 42000
10 | LCLERLFPPLMREIFCELGIASQVFQRIVFTAIYRRICGTGPHLAHLEAKALE | 30100
11 | SCCMLQVISGIAMGNSCLARMNFWPVIASNFPWLLIVIINYTMFFNWMLSYFL | 62400
12 | KEKEDYALAIKLYADSIIITLRRLFKELDYIEIKSLIISSMFKVLLYNLLIYK | 66200
13 | EGAADGRDEGEKSKVQKVGKACVYCQRSHMTCDESRPCKRCVSRKIADLCHDR | 29900
14 | RFMVVIVSLFPRLNYFMDAVGHVLSVYYFNHLACQWITTAITSLAIVLFALRT | 53900
15 | MLFLFFFIHILHPFFFFFNPFFLFLSFFFISFCTSVCLCMRKQLTRIIFLNYI | 50500
16 | ALRHRYIIGTSLCRLFIPLYFFACPYNTLFQDPNPLVWILLLYVSAQALLLLL | 63900
17 | PPPHLQLIYSCKAVRSSIQIFFDRAFIFKCSSSLWVCIVMFSRWLRTIRLFVW | 85600
18 | MLHLPLFLLYFFFFSLLLYFSFFPSSFFFFLLSPPFPLLIFSLFLSFLLLFPP | 40200
19 | GAQKPFDLTHWNITEYDCQGFDGYHEMSFFVLASHLYYRSLRSIPSLVRLWWI | 75200
20 | WERIREKASILALAYRLGVLLFALHFLFCLSQPPRFARLFWLSFSLLVPSTFF | 59000
21 | GVEGQGKRTRAGKKRRIVLRERQRKRVKEEEERKKKGEEKEGREREKRVRRNR | 46700

Row | Sequence | transcriptional activation domain activity
22 | DDEEENKSAPAKKSRAKKTVKKEEDDDDNNAEEAKPAPAKKSRAKKAVKKEED | 57900
23 | VYCQVLLNHKYRAYGGGYRAETIIYSFGRLSDLLYFVPVVVGRMEMRMGLTLK | 52200
24 | LLIQPLIQGFCYLMQFWISFFSSLFCFVTGDIPILLGILIPFYCLFFFHFFLF | 58700
25 | IAAAAEQEEEDEASTSSTNTSNGDANARAHAHAHWESRRERELHADHRGGAGG | 31600
26 | LLCKKVVAFFQLLSESHVSGMRRLGVTQELLSLVTGLAHYLKLLIRICLQGAL | 72100
27 | HRGVSVGIQFAPAGSSWYVEPHKCLIWKSFYFLMMYFMHMCVEYVLLLRVLAL | 41200
28 | TFLLLSMPALLLLFSALGVCFLLSTSGLFFLSTSGFFFLLTTSGFFFFLFFML | 37100
29 | AASAEDAVVGEKHKAEEPLDTNGDAKKAKVTNGNGEARKPGRPSKKDKKPQPT | 23100
30 | PAPAPEAPKEEEAAAEPAAEPPKTEEAPAAEPVKEPEQAEPTPAADAPADAPA | 18900
31 | SHRKGIERKKRLREEERRREAKENGIVLEREKRADKGKERGRRDRGVDAPGVG | 26800
32 | RRWQWYWGCFVCACALISLFLNVEVDRYRVQQLPLIVTSFFWYLMCMGTTCVV | 44600
33 | KAGEAKTATSKGAGDEEEGTQKKKGTSSRKKATGTMGNGEVEIGNAGSSEKKK | 36200
34 | RPPPPSAAAEPAADAPATEEAKPGHEKKEKTEKKPKEKAKKAEKKEEVCAAAT | < 6570
35 | RLLRLLLRLLRLLLLRLLLLLLLLLLLLLLLRLLLRLLVTLILFLNIQRVLIL | 16300
36 | PQRLDMIHFPLIYVGCVGVLLFNPFKIFFGSARMYFLNTMWRLAFSGFYHVEF | 40000
37 | GARRQARRPRKRESSAADGDDNDADRMDVDREEARGGREQADAGDAEDEDDEE | 40000
38 | VHLLLTVFFHYVPTPDPFFTNLLLCPLDGLLRANSVTLALSLLSRPSINPLLV | 58300
39 | YSASPLEGDSSLPSSLPSSTEDCLLLSLENTITVIAGNQRQAYDSTSSTEEGT | 16100
40 | IKKGAASPSKKGGRGSAKAKKEESDDEDVKPAKKAKGAAAAKGKPKGKALKKE | 24200
41 | IVCRTEKTSHMLIDFSEHLRINVYVLGATFVRLVHLLKVKIPLVDPVLYIVRF | 59900
42 | EVDMTPADALDDFDLEMLGDVESPSPGMTHDPVSYGALDVDDFEFEQMFTDAL | 112000

Row | Sequence | transcriptional activation domain activity
43 | SQKKHCELCKTPFRFTKLYSPSMPKTLPVYVFLSHVAKYLLRNLLVEARAMLV | 42900
44 | LGFLYDLIPFFFCCLPFLPFLAPPLKKHLALFQFHPLLHLPLLLPFFFLYFRP | 50200
45 | SNYCWQMSVLPRARISIFRAEVKERCVVTVALLFSVYDPIAIVDLVKKLETDF | 27500
46 | QKVGSDKTPGGGSSQYIWLIVYLSISLLSSVLVATTMLLIYTGSLRASVILHE | 53500
47 | LLTFLLFSIFFFERLPHLYRSISLLLRPCFRLNIHFIFLILSRVFMYGSYGSF | 55300
48 | MSSPTSSLFFVSPPVGCYRYLLFFFFSSFWLLFVFLRSVPFGPTLLLFFFYFN | 42400
49 | TRTVLFSRGACVILFPWLMYAVGLLLHMIIVNYRLYILYWLLVLKRPIGGFKF | 57500
50 | KYAYGCDELIFNPLVHWWKMGPINKQLRTFVWSDAPVHYKVTMLSYMFSYYGI | 50100
51 | MLLSMLYNSVGYQYLEDHCPQGGEYSDLLRNLINECEAILPSYEIIERYKNHF | 39500
52 | REARRHADEEARRRQARQEARRHADEEARRRQEEELARQEARRHADEEARRRQ | 27000
53 | LWLYLAKQLFYEDLGWFFLLLAFYFTWPLIFLLFLIFWMLFVLVYVLFYLVSF | 52300
54 | MPTITLAWPERAYFYSLLVVSLLSAKLLHVFSHLTTIPIFLFLLYFPTFLFLD | 59600
55 | MYVGGVFSVSLFESVCYFVIFFSSLDLLLLLLLLFFSFLFFSFLFFFFSLVPS | 44800
56 | TSSSTAAPAVKRDEKPVKEKKPPAPQAPLEPGAVPEKRKRGRPRKVVSPPVPV | 49500
57 | MIPLSHRKHKLISLPYLLVSSWLFLSVTLSIPLLQSYIAKHYSTGLVLFLLYF | 71900
58 | MGWVHLIGRCLILPVHYVVPFFIFFYFAYTSILTTSIGLLGMDLSLRLVFLCS | 51000
59 | FFFSSIFFIVFGGPGQLFFFFSILLFLYPISTFMRCIIHRVFLLFFAFFFFLF | 29400
60 | RRNRRTDKKRNEKESEHEGSTRKRTSYDKDDERAHSDSRRSRHHHRKERKNRH | 32100
61 | LGTTLLIVVKMLLNWETIDCWGLIYKKMVIGQFMSEMYRIAAGGGKRRVPWAK | 60800
